From publication PMC11904497 come the findings set out here.

Assay [1] addresses S2SbHbN, Shewanella benthica strain KT99 TrHbN-2 (UniProt ID: A9DF82) with Cys51Ser and Cys71Ser replacements (Shewanella benthica strain KT99). Put plainly: HP-SAXS (batch SAXS in the high-pressure cell); undiluted sample 10 mg/ml in the high-pressure cell, ambient pressure (0.101 MPa) point of the pressure series; volume-fraction analysis, radius of gyration and molecular mass.

Assay [2] addresses Y34F S2SbHbN (Shewanella benthica strain KT99). The description is as above.

As for “S2SbHbN, Shewanella benthica strain KT99 TrHbN-2 (UniProt ID: A9DF82) with Cys51Ser and Cys71Ser replacements (natural protein)”, the stoichiometry N in assay [1] is 4.

In turn, Y34F S2SbHbN (natural protein) had a stoichiometry N in assay [2] of 4.
